Results on 83 variants are retold here after the RNAGym collection of RNA variant scans (doi:10.1073/pnas.2313332121).

Variants at the floor of the assay were thinned out. Where only a bound is given, the exact number is not on record here.

To fix the notation:
B1: TPR 5TU (parent)
chain: GGAUCUUCUCGAUCUAACAAAAAAGACAAAUCUGCCACAAAGCUUGAGAGCAUCUUCGGAUGCAGAGGCGGCAGCCUUCGGUGGCGCGAUAGCGCCAACGUUCUCAACUAUGACACGCAAAACGCGUGCUCCGUUGAAUGGAGUUUAUCAUG

The variants in the data set derive from B1. In words: polymerase ribozyme fitness, log enrichment relative to wild type (log ratio); higher = more active; in vitro selection for triplet polymerase activity. Summed up:
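Only genotypes with ≥10 input reads and ≥1 read per output were kept after Illumina sequencing of input and output libraries. These libraries were PCR-built, transcribed mutants of each subunit of a heterodimeric triplet polymerase ribozyme, each put through one triplicate in vitro selection round with frozen incubation at −7 °C, gel excision of extended constructs, streptavidin-bead capture and RT-PCR. Fitness is a logarithmic ratio of genotype enrichment to wild-type enrichment, from inverse-variance-weighted replicate averages, with the logarithm in base 2.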
Turning to C27U U44G U56A G58C U61A G86U U135C, the “polymerase ribozyme fitness (log ratio)” value is at most -4.2.
On to C27U G34U C93U G112C U148G, for which the “polymerase ribozyme fitness (log ratio)” value is at most -4.2.
The value for C27U A52G G92A C96U G133A was at most -4.2; that for C27U A40U G59U A107G C116A was at most -4.2.
The value for A24U A60U G84U was -2.22; that for A24U G42A G88A G92A A115C was at most -4.2.
With A26U C125A the figure was -1.8; with G25A C51U G59C G88A U102G G136U, at most -4.2.
In the case of A26U U31C A52U A73G C87A A107G, the “polymerase ribozyme fitness (log ratio)” value was at most -4.2.
With G25U A52C C63U G88C U127C the figure was at most -4.2; with C27U G68U G74U U77C G80C U104C C116G, at most -4.2; with C27A A29G U33G C35A A60G C93G A97G A120U G133U U134G, at most -4.2.
With A26C A52C C54A C114A C129G U134A the figure was at most -4.2; with C27U C76U G83A, -1.55.
The value for C27U C93U was -3.3.
For the variant A24U U33G U77A C87U, the “polymerase ribozyme fitness (log ratio)” value is at most -4.2.
Take A26U A89C C95U U104A A107G: the “polymerase ribozyme fitness (log ratio)” value was at most -4.2.
The value for C27G G62A A64G A73C G88U C99U A107U G124A U130C U148A was at most -4.2.
Consider C27G G83A, for which the “polymerase ribozyme fitness (log ratio)” value was -4.12.
C27G G67C C85A: the “polymerase ribozyme fitness (log ratio)” value was at most -4.2.
In the case of A26G C35G C57A G81C C87G, the “polymerase ribozyme fitness (log ratio)” value was at most -4.2.
The value for C27U A97U C116U A120C was -3.06; that for A26C C36G C116A U148G was at most -4.2.
In the case of A26C A60U A107C A115G, the “polymerase ribozyme fitness (log ratio)” value is at most -4.2.
The value for C27A A60U G133A U135C A150U was at most -4.2; that for C27A A49C G59C G74C G136U was at most -4.2; that for G25C C105U U144C was -2.67.
The value for C27U A37C G59U G92C G117C was -3.65; that for A24U G58A G88U was at most -4.2; that for A26U G50C was at most -4.2.
With C27G C105A C114A A119G the figure was at most -4.2; with C27G G80A G81C, -4.11.
For C27G A30G A39U C87A, the “polymerase ribozyme fitness (log ratio)” value is at most -4.2.
The value for A24U C32G U55G U78A U104G was at most -4.2.
The value for A26G G58A C105G G117C U127G was at most -4.2.
With A26C G59U A89C A113G C132G G141U the figure was at most -4.2; with A24U A40C U55A A60G C75G C96G U104G, at most -4.2; with C27U A47U A49C G117A, at most -4.2.
As to A26G G42C C95U A150U, the “polymerase ribozyme fitness (log ratio)” value is at most -4.2.
For the variant A26C A29U G126U A138C, the “polymerase ribozyme fitness (log ratio)” value was at most -4.2.
As for A24U C79U U102G C118U A119G G140A, the “polymerase ribozyme fitness (log ratio)” value is at most -4.2.
Consider C27A U53A A119C, for which the “polymerase ribozyme fitness (log ratio)” value is at most -4.2.
Consider A24U C35U G42C C93U G136C A142G, for which the “polymerase ribozyme fitness (log ratio)” value was -4.03.
With C27U A60U the figure was -1.43; with A26G U31A G48A A60C C76G A107C A119U, at most -4.2; with C27A U44A C85A A107C U148C, at most -4.2.
The value for C27U C72U G88A G94A G152A was -4.19; that for A24U G83U C85G G126U was at most -4.2.
With A24U C99U the figure was -1.46.
Take A24U A28G A29U C93G C114U: the “polymerase ribozyme fitness (log ratio)” value is at most -4.2.
The value for G25C C75U A91G C99A G124U U134A was at most -4.2; that for A26C C54G A121G was -2.79.
With C27U A64G C75G G86A C105U the figure was -4.19.
With A26C A66C G81C G83C the figure was -4.1; with A26G A66U C85A C95A G124C C131A, at most -4.2.
As to A26U U33G G92A C95U U134G, the “polymerase ribozyme fitness (log ratio)” value is at most -4.2.
With A26U C54A G65A A98G the figure was -4.2; with G25C G94A, -3.16.
The value for C27U C35U U53A U56G C57A C93A A113C A122G U146A C149G was at most -4.2; that for G25C A52C G84U was at most -4.2; that for A26U U56A C93U was -3.4.
With C27U A39U A73G C79U C93A the figure was at most -4.2; with C27G G59U A60C A91U C105U U145C, at most -4.2; with C27U A28U U53G C93A, at most -4.2.
G25A C72U G80U C93A C114U: the “polymerase ribozyme fitness (log ratio)” value was at most -4.2.
The value for G25C U78G C87U G117U C118U U148A was at most -4.2; that for C27U U45A G71A C75A A89U C118A was at most -4.2.
The value for A24U G92U was 0.213; that for C27U U33C A73G C85U was -0.859.
The value for A26C C57U C85G G92U was at most -4.2; that for A26U U31C A39U U90C was at most -4.2.
On to A26U A52G C85U, for which the “polymerase ribozyme fitness (log ratio)” value is -1.69.
With A26G A30C G59A G74A G84U the figure was -3.99.
The value for A26G A60G was -3.55; that for A26G U44G A47C A49C C72G C76G A91C C103G C105G was at most -4.2.
With A24U C93U U104G the figure was -1.84; with C27G A28U G50U C87G G140C, -3.94.
Regarding G25C G58A C72A G80A C87A C118G, the “polymerase ribozyme fitness (log ratio)” value was at most -4.2.
The value for A26G A40G U55A G92A C123G C125U G126A U127C was at most -4.2; that for A24U A52G C79G G94A A107G was at most -4.2.
With G25U U55G A73G A120C C123U the figure was -3.39.
With A26U A40G A41C A49G C51U A52C U90A G92A C95U A97C C118A A137G U151C the figure was at most -4.2; with A24U A52C C87A, at most -4.2.
